Test results from paper PMC2688778 (Structure (London, England : 1993), 2009).

Experiments:
Assay in all cases: fluorescence anisotropy
[1] = biological target: T1, RecE564 P658L (Escherichia coli K12, UniProt P15032 564-866, P658L)
T1 sequence: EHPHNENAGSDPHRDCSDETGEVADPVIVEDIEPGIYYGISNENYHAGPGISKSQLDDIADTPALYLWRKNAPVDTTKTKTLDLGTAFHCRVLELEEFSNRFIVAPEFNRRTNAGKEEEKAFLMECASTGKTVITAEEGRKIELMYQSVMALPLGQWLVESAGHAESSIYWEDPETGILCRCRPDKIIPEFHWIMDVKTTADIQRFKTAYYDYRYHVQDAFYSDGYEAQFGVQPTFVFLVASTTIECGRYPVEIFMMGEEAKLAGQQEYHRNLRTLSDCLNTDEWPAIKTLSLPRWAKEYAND

[2] = biological target: T2, RecE564 K761A (Escherichia coli K12, UniProt P15032 564-866, K761A)
T2 sequence: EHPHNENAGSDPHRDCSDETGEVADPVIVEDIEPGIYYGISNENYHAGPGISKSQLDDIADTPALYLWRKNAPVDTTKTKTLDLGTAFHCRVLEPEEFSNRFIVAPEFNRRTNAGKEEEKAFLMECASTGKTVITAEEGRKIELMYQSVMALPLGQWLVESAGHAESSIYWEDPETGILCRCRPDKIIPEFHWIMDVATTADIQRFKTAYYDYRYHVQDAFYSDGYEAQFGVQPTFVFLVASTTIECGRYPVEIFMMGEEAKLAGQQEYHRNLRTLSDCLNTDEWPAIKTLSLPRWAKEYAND

[3] = biological target: T3, RecE564 R746A (Escherichia coli K12, UniProt P15032 564-866, R746A)
T3 sequence: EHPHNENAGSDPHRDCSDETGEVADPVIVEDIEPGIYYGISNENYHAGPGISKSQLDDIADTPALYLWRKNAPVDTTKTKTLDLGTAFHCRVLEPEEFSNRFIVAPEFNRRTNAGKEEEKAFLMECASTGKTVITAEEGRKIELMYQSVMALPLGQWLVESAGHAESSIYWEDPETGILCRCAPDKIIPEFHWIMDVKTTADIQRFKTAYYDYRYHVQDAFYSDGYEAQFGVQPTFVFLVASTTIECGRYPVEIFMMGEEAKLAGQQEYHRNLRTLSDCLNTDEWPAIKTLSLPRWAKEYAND

[4] = biological target: T4, RecE564 E657A (Escherichia coli K12, UniProt P15032 564-866, E657A)
T4 sequence: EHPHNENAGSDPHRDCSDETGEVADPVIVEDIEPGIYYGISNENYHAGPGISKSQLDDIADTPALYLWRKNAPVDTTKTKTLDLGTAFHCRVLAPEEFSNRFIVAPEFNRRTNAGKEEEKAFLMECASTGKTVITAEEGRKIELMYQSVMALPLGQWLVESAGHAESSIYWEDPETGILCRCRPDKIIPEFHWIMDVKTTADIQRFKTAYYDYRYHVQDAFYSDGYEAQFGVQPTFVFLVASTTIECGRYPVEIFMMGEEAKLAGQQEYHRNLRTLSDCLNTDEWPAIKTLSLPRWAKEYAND

[5] = biological target: T5, RecE564 F661A (Escherichia coli K12, UniProt P15032 564-866, F661A)
T5 sequence: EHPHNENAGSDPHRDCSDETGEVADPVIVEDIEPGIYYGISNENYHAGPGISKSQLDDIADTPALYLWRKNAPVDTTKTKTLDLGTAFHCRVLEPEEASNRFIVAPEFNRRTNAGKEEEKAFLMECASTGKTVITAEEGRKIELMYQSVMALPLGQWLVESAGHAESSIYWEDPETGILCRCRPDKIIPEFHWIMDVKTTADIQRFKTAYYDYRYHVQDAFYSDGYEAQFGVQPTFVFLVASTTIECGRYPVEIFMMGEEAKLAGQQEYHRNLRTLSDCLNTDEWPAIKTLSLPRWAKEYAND

[6] = biological target: T6, RecE564 P669A (Escherichia coli K12, UniProt P15032 564-866, P669A)
T6 sequence: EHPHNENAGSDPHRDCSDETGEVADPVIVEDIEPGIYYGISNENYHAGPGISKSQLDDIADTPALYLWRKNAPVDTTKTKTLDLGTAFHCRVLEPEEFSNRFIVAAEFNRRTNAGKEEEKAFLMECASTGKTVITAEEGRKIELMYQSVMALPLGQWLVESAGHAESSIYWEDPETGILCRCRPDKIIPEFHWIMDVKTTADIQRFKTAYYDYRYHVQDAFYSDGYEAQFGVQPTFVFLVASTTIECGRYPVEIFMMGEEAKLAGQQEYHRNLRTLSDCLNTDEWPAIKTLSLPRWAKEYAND

[7] = biological target: T7, RecE606 P658L (Escherichia coli K12, UniProt P15032 606-866, P658L)
T7 sequence: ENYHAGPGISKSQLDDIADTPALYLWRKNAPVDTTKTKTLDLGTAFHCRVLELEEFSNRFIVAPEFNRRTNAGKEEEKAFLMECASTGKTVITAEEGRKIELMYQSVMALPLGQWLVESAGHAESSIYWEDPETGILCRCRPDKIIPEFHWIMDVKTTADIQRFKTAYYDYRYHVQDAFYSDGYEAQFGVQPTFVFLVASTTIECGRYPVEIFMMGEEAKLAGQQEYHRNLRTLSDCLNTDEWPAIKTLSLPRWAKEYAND

B1: F25 (dsDNA)
DNA 1: TAGAGCTTAATTGCTGAATCTGGTG
DNA 2: CACCAGATTCAGCAATTAAGCTCTA
B1 was tested, and the Kd [1] was 80 ± 10 nM, the Kd [2] was 130 ± 10 nM and the Kd [3] was 90 ± 10 nM. The Kd [4] was 90 ± 10 nM, the Kd [5] was 118 ± 8 nM and the Kd [6] was 109 ± 8 nM. The Kd [7] was 110 ± 20 nM.
